Publication PMC3660561, “Crystal Structure of DmdD, a Crotonase Superfamily Enzyme That Catalyzes the Hydration and Hydrolysis of Methylthioacryloyl-CoA” (PLoS ONE, 2013)
Where a chain is given by its changes, count along the chain named. Numbers in names are those of the source.

B1: Ruegeria pomeroyi DmdD, wild type (enzyme)
chain: MTQDVTSGYSNLDLDLRDNGVCVVTLNRPDKRNALDVATIEELVTFFSTAHRKGVRAVVLTGAGDHFCAGLDLVEHWKADRSADDFMHVCLRWHEAFNKMEYGGVPIIAALRGAVVGGGLELASAAHLRVMDQSTYFALPEGQRGIFTGGGATIRVSDMIGKYRMIDMILTGRVYQGQEAADLGLAQYITEGSSFDKAMELADKIASNLPLTNFAICSAISHMQNMSGLDAAYAEAFVGGIVNTQPAARERLEAFANKTAARVRPNS
notes: DmdD (methylthioacryloyl-CoA hydratase) of Ruegeria pomeroyi, sub-cloned into pET26b; Hexamer (dimer of trimers); The C-terminal His-tag was not cleaved before crystallization; also called wild-type DmdD; free enzyme; not shown: His6, C-terminal, kept
B2: DmdD (Ruegeria pomeroyi DSS-3; E141A) (protein)
chain: B1 chain with E141A
notes: pET26b, C-terminal hexahistidine tag (not cleaved before crystallization), expressed in E. coli BL21(DE3) Star; homohexamer (dimer of trimers)
B3: Ruegeria pomeroyi DmdD E121A mutant (enzyme)
chain: B1 chain with E121A
notes: DmdD (methylthioacryloyl-CoA hydratase) of Ruegeria pomeroyi with the E121A mutation (QuikChange); crystals soaked with MTA-CoA or MMPA-CoA; PDB 4IZB is the wild-type parent; source: E. coli, purified following the same protocol as for the wild-type protein; not shown: His6, C-terminal, kept

Tests used:
[1] = target: the molecule itself; assay: crystal structure; wild-type DmdD free enzyme, 1.5 Å; space group P2(1)3, two monomers in the asymmetric unit, hexamer generated by the crystallographic 3-fold axis; crystals from 100 mM Tris pH 8.5, 25% PEG 3350, 200 mM NaCl, 20°C
[2] = substrate: CS/C=C/C(=O)SCCNC(=O)CCNC(=O)[C@H](O)C(C)(C)COP(=O)(O)OP(=O)(O)OC[C@H]1O[C@@H](n2cnc3c(N)ncnc32)[C@H](O)[C@@H]1OP(=O)(O)O; assay: MeSH release by headspace gas chromatography; assay type: biochemical, Ruegeria pomeroyi; conditions: MeSH release (equivalent to hydration), 100 mM HEPES pH 7.4
Source text: MeSH release by headspace gas chromatography on DmdD

purified protein [3] = substrate: CC(O)CC(=O)SCCNC(=O)CCNC(=O)[C@H](O)C(C)(C)COP(=O)(O)OP(=O)(O)OC[C@H]1O[C@@H](n2cnc3c(N)ncnc32)[C@H](O)[C@@H]1OP(=O)(O)O; assay: purified protein; assay type: biochemical, Ruegeria pomeroyi; conditions: CoA ester hydrolysis, 100 mM HEPES pH 7.4
purified protein [4] = substrate: C/C=C/C(=O)SCCNC(=O)CCNC(=O)[C@H](O)C(C)(C)COP(=O)(O)OP(=O)(O)OC[C@H]1O[C@@H](n2cnc3c(N)ncnc32)[C@H](O)[C@@H]1OP(=O)(O)O; assay: purified protein; assay type: biochemical, Ruegeria pomeroyi; conditions: hydration, 100 mM HEPES pH 7.4
purified protein [5] = substrate: CSCCC(=O)SCCNC(=O)CCNC(=O)[C@H](O)C(C)(C)COP(=O)(O)OP(=O)(O)OC[C@H]1O[C@@H](n2cnc3c(N)ncnc32)[C@H](O)[C@@H]1OP(=O)(O)O; assay: purified protein; assay type: biochemical, Ruegeria pomeroyi; conditions: CoA ester hydrolysis, 100 mM HEPES pH 7.4
[6] = target: the molecule itself; assay: crystal structure; E121A mutant crystals soaked 48 h with 10 mM MTA-CoA or MMPA-CoA, 1.8 Å; space group P2(1)3, two monomers in the asymmetric unit

| Protein | stoichiometry N [1] | Km [2] | kcat [2] | Km (purified protein [3]) | kcat (purified protein [3]) | Km (purified protein [4]) | kcat (purified protein [4]) | Km (purified protein [5]) | kcat (purified protein [5]) | stoichiometry N [6] |
| --- | --- | --- | --- | --- | --- | --- | --- | --- | --- | --- |
| B1 | 6 | 9.4 ± 2.1 µM | 47 ± 3 s⁻¹ | 119 ± 20 µM | 13.2 ± 1.6 s⁻¹ | 19.0 ± 3.1 µM | 42 ± 3 s⁻¹ | 69.0 ± 16.4 µM | 0.9 ± 0.1 s⁻¹ | – |
| B2 | – | 63.3 ± 12.0 µM | 0.0036 ± 0.0004 s⁻¹ | – | – | – | – | – | – | – |
| B3 | – | – | – | – | – | – | – | – | – | 6 |
